From paper doi:10.1101/2023.06.13.544671

Target: RSC chromatin remodeling complex with Sth1-3xFlag-HaloTag (S. cerevisiae) (UniProt P32597)
Assay: two-colour single-molecule colocalisation on DNA (optical tweezers with confocal microscopy); RSC-JFX554 with ISW2-JFX650, or RSC-JFX554 with RSC-JFX650, diffusing on naked lambda DNA stretched to 5 pN; 10 mM Tris pH 7.4, 50 mM KCl, 3 mM MgCl2, 0.1 mg/ml BSA, Trolox; colocalisation threshold 0.31 um (RSC-RSC) and 0.29 um (RSC-ISW2); single exponential fits of dwell times

| half-life of long colocalisation with co-diffusion, on DNA | Substance |
| --- | --- |
| 0.68 s | ISW2 chromatin remodeling complex with Isw2-3xFlag-HaloTag (from UniProt Q08773 1-1120) |
| 0.7 s | RSC chromatin remodeling complex with Sth1-3xFlag-HaloTag (from UniProt P32597 1-1359) |
